# Measured values published in patent publication US20230151434A1, “REAWAKENING OF DORMANT TUMOR CELLS BY MODIFIED LIPIDS DERIVED FROM STRESS ACTIVATED NEUTROPHILS” (The Wistar Institute of Anatomy and Biology, priority 2020, published 2023).
# Legend:
# KPr^p53A cells = assay: In vivo stress induction, NOD/SCID mice injected with KPr^p53A cells and PMN; design: species or system mouse
# From the text: A total of 2.5×10^4 KPr^p53A cells were intravenously injected to NOD/SCID mice. Beginning 3 weeks after injection, mice were imaged weekly. Luciferin (PerkinElmer) was intraperitoneally injected in mice before imaging according to the manufacturer's instruction. Mice were imaged with IVIS Spectrum In Vivo Imaging System (IVIS, PerkinElmer) to detect luminescent signal coming from growing cancer cells. Mice were put under anesthesia in the induction chamber with isoflurane vaporizer set to 2.5%, at a flow rate of ˜1.5 liters/min. Mice were then transferred in the IVIS imaging stage nose cone inside the IVIS manifold (IVIS manifold nose cones flow set to ˜0.25 LPM). Animals were monitored by video during imaging. Once the images of luciferase/luciferin activity were acquired, the anesthesia was turned off and the animals were returned to their cages. […] Analysis and quantification were performed with IVIS imaging system Living Image Software 4.7.4 (PerkinElmer). […] When signal was detected, mice were sacrificed, and bioluminescent images of the harvested lung were taken. […] If no bioluminescence was detected in lungs after 80 days from last PMN injection, experiments were terminated, and lung tissue were collected. […] Bioluminescence was not detected in any LL2^CisA-injected mice at 3 weeks after injection. Mice were treated with PMN or PMN-MDSC and analyzed as described above. […]
# PMN = assay: LC-ESI-MS analysis of lipids in PMN; assay type: cell-based, mouse
# Procedure: Lipids were extracted by the Folch procedure with slight modifications, under nitrogen atmosphere, at all steps. Briefly, methanol (1 ml) was added to the cell suspension and mixed. After that, chloroform (2 ml) was added, and the mixture was vortexed every 15 min for 1 hour at 0° C. Next, 0.1 M NaCl (0.5 ml) was added to the samples and vortexed, and the chloroform layer was separated by centrifugation (1500 g, 5 min). The lower (organic) layer was collected. The aqueous layer was re-extracted with 1 ml of chloroform/methanol (2:1, v/v). The chloroform (lower) layers were combined, evaporated under a stream of nitrogen, and used for lipidomics analysis. MS analysis of phospholipids was performed on a Fusion Lumos trihybrid-quadrupoleorbitrap-ion trap mass spectrometer (Thermo Fisher Scientific). Phospholipids were separated on a normal phase column [Luna 3 μm Silica (2) 100 A, 150×1.0 mm (Phenomenex)] at a flow rate of 0.065 ml/min on a Thermo Ultimate 3000 HPLC system. The column was maintained at 35° C. The analysis was performed using gradient solvents (A and B) containing 10 mM ammonium formate. Solvent A contained propanol/hexane/water (285:215:5, v/v/v) and solvent B contained propanol/hexane/water (285:215:40, v/v/v). All solvents were LC/MS grade. The column was eluted for 0 to 3 min with a linear gradient from 10 to 37% B and then held for 3 to 15 min at 37% B. The column was eluted for 15 to 23 min with a linear gradient of 37 to 100% B, and then held for 23 to 75 min at 100% B. The column was eluted again for 75 to 76 min with a linear gradient from 100 to 10% B followed by equilibration from 76 to 90 min at 10% B. Analysis was performed in negative ion mode at a resolution of 120,000 for the full MS scan in a data-dependent mode. The scan range for MS analysis was 400 to 1800 m/z (mass/charge ratio) with a maximum injection time of 100 ms using 1 microscan. An isolation window of 1.2 Da was set for the MS and MS2 scans. Capillary spray voltage was set at 3.5 kV, and capillary temperature was 320° C.
Molecule,growth of KPr^p53A cells in lung and liver of stressed mice injected with PMN (KPr^p53A cells; 1 mg/kg i.p. daily during stress induction),"survival of stressed tumor-bearing mice (KPr^p53A cells; humane end-points, n=10 per group)",content of oxidatively truncated PC species in PMN (PMN; PMN incubation),"accumulation of oxidized, oxidatively truncated, and lyso-PE in PMN (PMN; overnight treatment)",content of LPE containing saturated and monoenic acyl chains in PMN (PMN; overnight treatment)
"Cc1ccc(OCC(O)C(C)NC(C)C)c2c1CCC2 (centres unmarked) [ICI-118,551]",abrogated this effect,markedly improved survival,–,–,–
"S100A8/A9: recombinant S100A8/A9, heterocomplex of two S100 calcium binding proteins (calprotectin) (protein, UniProt P27005 2-89; P31725 2-113, looked up) Protein S100-A8: PSELEKALSNLIDVYHNYSNIQGNHHALYKNDFKKMVTTECPQFVQNINIENLFRELDINSDNAINFEEFLAMVIKVGVASHKDSHKE Protein S100-A9: ANKAPSQMERSITTIIDTFHQYSRKEGHPDTLSKKEFRQMVEAQLATFMKKEKRNEALINDIMEDLDTNQDNQLSFEECMMLMAKLIFACHEKLHENNPRGHGHSHGKGCGK",–,–,No significant changes in the content of oxidatively truncated PC species,"caused marked accumulation of oxidized, oxidatively truncated, and lyso-PE in PMN",did not change the content of LPE containing saturated and monoenic acyl chains in PMN
